Data as given in US20240209113A1 (BEIGENE SWITZERLAND, published 2024).
Numbering of substitutions follows the chain as printed. “And” between values parts separate entries of the source, which are not always exact repeats. Equal entries are not always repeated.

Key:
[1] = biological target: T1, GK28b (human GPC3 AA 537-563) (human, constructed to the N terminal of biotin, generating GK28b-KLH (so in the source)); assay: ELISA on GK28b-KLH [A]
T1 construct: also called GK28b-KLH
T1 peptide: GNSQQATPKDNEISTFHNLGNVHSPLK

[2] = biological target: T2, huGPC3-His (human, UniProt P51654 25-559); assay: ELISA on huGPC3-His [C]
T2 construct: not shown: His tag

[3] = biological target: T3, Human CD137 (recombinant protein, Example 11) (human, UniProt Q07011 24-186); assay: SPR
T3 sequence (Q07011 24-186 limits assumed): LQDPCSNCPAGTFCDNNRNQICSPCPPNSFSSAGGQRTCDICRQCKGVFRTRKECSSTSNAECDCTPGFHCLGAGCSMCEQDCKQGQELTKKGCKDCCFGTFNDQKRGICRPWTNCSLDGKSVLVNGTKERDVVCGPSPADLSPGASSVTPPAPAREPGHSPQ

[4] = biological target: T4, Monkey CD137 (recombinant protein, Example 11) (cynomolgus monkey, UniProt Q07011 24-186 (human entry), limits assumed); assay: SPR
T4 construct: also called cynomolgus monkey CD137
T4 chain: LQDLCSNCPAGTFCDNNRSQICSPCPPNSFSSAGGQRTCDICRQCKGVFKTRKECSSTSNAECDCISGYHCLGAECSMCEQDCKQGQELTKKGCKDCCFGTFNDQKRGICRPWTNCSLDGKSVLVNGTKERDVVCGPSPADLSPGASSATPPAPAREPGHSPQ

[5] = biological target: T5, human GPC3 on cells (human, UniProt P51654 25-559); assay: FACS on Hepa1-6T-OS8-GPC3 cells
T5 construct: also called Hepa1-6T-OS8-GPC3; GPC3 expressing cells (HepG2, Huh7, Hep3B)

[6] = biological target: C1q (UniProt P02745 23-245; P02746 28-253; P02747 29-245); assay: C1q binding ELISA
Chain of C1q (P02745 23-245, chain 1 of 3): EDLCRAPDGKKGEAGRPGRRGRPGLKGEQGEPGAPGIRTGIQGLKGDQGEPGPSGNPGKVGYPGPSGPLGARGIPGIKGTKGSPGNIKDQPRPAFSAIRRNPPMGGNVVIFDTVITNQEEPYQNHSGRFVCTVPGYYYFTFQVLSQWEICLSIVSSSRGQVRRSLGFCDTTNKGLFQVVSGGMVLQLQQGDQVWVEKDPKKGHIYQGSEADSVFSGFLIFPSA
Chain of C1q (P02746 28-253, chain 2 of 3): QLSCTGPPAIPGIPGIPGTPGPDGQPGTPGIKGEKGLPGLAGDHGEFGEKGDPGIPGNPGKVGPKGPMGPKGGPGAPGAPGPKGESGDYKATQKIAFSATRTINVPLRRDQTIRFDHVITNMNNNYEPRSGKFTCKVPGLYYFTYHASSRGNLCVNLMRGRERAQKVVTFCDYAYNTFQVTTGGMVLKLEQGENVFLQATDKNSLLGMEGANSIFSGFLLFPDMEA
Chain of C1q (P02747 29-245, chain 3 of 3): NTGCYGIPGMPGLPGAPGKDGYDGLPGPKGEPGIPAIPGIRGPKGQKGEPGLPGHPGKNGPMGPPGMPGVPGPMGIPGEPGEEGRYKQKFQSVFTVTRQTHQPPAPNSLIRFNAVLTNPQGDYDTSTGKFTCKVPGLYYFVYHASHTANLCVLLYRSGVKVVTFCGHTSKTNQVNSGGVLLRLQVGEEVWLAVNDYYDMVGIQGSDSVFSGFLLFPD

[7] = biological target: T6, full-length human CD137 on cells (human, UniProt Q07011 24-255); assay: FACS on HuT78/CD137 cells
T6 construct: also called huCD137; native CD137
T6 sequence (Q07011 24-255 limits assumed): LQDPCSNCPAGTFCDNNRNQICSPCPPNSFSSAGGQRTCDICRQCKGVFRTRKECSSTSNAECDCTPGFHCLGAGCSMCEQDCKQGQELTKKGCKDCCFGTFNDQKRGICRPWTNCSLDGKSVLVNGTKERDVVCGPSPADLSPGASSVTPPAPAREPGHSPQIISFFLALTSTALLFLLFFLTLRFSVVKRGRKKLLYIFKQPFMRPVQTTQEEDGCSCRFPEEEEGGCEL

[8] = biological target: T7, Human GPC3 (recombinant protein, Example 11) (human, UniProt P51654 25-559, limits assumed); assay: dual antigen binding ELISA with CD137 and GPC3 bound at the same time; which antigen is coated is not stated
[9] = biological target: T3, Human CD137 (recombinant protein, …); assay: as above
[10] = biological target: T7, Human GPC3 (recombinant protein, …); assay: SPR
[11] = biological target: T8, Monkey GPC3 (cynomolgous monkey, UniProt A0A2K5VK50 24-553); assay: SPR
T8 construct: Bought protein; also called monkey GPC3 (Cat #GP3-C5225, Acrobiosystem)

[12] = biological target: human CD137 ECD mutant P47A (human, UniProt Q07011 24-186); assay: ELISA on wild type and mutant CD137 proteins
Chain of human CD137 ECD mutant P47A (Q07011 24-186 P47A limits assumed): as the sequence (Q07011 24-186 limits assumed) above, with P24A counted along it

[13] = biological target: human CD137 ECD mutant F36A (human, UniProt Q07011 24-186); assay: ELISA on wild type and mutant CD137 proteins
Chain of human CD137 ECD mutant F36A (Q07011 24-186 F36A limits assumed): as the sequence (Q07011 24-186 limits assumed) above, with F13A counted along it

[14] = biological target: human CD137 ECD mutant P49A (human, UniProt Q07011 24-186); assay: ELISA on wild type and mutant CD137 proteins
Chain of human CD137 ECD mutant P49A (Q07011 24-186 P49A limits assumed): as the sequence (Q07011 24-186 limits assumed) above, with P26A counted along it

[15] = biological target: T6, full-length human CD137 on cells; assay: cell-based or functional assay
[16] = biological target: T5, human GPC3 on cells; assay: cell-based or functional assay
[17] = biological target: T9, Mouse CD137 (mouse, UniProt P20334 24-187, limits assumed); assay: SPR
T9 construct: also called murine CD137
T9 sequence (looked up): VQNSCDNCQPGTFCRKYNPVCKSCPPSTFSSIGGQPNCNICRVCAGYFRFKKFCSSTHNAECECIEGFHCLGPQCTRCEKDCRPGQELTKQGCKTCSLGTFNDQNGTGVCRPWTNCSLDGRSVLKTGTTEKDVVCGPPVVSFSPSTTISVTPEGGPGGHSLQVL

[18] = biological target: Mouse GPC3 (mouse, UniProt Q8CFZ4 25-558, limits assumed); assay: SPR
Chain of Mouse GPC3 (Q8CFZ4 25-558 limits assumed): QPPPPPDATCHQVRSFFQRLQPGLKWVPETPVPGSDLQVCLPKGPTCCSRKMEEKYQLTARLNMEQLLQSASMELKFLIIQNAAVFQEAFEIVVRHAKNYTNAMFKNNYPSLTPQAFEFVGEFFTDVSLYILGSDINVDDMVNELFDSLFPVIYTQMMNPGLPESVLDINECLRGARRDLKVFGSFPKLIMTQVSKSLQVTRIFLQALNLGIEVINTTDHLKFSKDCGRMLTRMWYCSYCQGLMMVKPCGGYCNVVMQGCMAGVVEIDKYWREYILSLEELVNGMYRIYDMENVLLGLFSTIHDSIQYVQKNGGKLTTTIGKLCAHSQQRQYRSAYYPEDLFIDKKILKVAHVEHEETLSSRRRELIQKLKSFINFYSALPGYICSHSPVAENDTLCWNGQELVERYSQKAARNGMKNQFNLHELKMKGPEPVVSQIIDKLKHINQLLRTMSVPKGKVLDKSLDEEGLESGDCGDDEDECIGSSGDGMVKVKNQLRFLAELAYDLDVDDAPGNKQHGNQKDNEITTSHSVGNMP

[19] = biological target: FcγRIIIAF158 (UniProt P08637 17-208, limits assumed); assay: ELISA
Chain of FcγRIIIAF158 (P08637 17-208 limits assumed): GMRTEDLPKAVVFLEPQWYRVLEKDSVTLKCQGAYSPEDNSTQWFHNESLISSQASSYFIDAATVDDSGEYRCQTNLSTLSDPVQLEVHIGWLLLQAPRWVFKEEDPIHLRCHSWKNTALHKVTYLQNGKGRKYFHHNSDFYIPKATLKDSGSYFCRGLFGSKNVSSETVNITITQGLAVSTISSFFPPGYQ

[20] = biological target: T10, FcγRIIAR131 (UniProt P12318 36-218, limits assumed); assay: ELISA
T10 sequence (looked up): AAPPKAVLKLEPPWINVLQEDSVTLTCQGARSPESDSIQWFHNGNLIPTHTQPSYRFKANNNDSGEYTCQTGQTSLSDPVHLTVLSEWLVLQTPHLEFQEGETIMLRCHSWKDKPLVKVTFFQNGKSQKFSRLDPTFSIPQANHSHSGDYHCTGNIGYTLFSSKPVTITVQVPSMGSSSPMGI

[21] = biological target: FcγRI (UniProt P12314 16-288, limits assumed); assay: ELISA
Chain of FcγRI (P12314 16-288 limits assumed): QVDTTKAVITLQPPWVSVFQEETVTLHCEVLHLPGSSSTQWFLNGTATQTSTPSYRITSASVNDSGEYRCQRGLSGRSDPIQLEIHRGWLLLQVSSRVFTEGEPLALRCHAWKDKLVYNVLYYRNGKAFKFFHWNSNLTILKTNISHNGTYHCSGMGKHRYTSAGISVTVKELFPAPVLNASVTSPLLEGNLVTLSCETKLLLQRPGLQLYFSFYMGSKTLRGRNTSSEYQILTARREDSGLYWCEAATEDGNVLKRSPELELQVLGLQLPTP

[22] = biological target: T11, FcγRIIAH131 (UniProt P12318 36-218, limits assumed); assay: ELISA
T11 sequence (looked up): T10 sequence (looked up) with R132H

[23] = biological target: FcγRIIIB (UniProt O75015 17-200, limits assumed); assay: ELISA
Chain of FcγRIIIB (O75015 17-200 limits assumed): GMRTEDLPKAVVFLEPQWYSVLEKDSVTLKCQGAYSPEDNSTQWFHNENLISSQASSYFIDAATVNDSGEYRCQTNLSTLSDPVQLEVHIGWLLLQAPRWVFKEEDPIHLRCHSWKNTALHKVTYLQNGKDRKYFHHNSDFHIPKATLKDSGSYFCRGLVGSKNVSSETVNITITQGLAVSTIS

[24] = biological target: T12, FcγRIIB (UniProt P31994 43-217, limits assumed); assay: ELISA
T12 sequence (looked up): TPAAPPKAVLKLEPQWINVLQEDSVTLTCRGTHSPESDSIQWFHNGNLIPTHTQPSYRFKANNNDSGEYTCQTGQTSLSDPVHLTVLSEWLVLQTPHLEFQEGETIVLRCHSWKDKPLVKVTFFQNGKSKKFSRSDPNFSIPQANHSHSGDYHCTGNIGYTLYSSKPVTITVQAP

[25] = biological target: FcγRIIIAV158 (UniProt P08637 17-208, limits assumed); assay: ELISA
Chain of FcγRIIIAV158 (P08637 17-208 F176V limits assumed): as the sequence (P08637 17-208 limits assumed) above, with F160V counted along it

[26] = biological target: T13, DS50b (human GPC3 AA 511-560) (human, constructed to the N terminal of biotin, generating DS50b-KLH (so in the source)); assay: ELISA on DS50b-KLH [B]
T13 construct: also called DS50b-KLH
T13 peptide: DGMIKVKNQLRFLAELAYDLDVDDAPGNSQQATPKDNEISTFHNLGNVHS

EC50 (read off the curve) [1]: ~0.008 µg/mL
EC50 (read off the curve) [2]: ~0.04 µg/mL
Kd [3]: 40.1 nM
koff [3]: 0.00484 s⁻¹
kon [3]: 121000 M⁻¹ s⁻¹
Kd [4]: 19.2 nM
koff [4]: 0.00291 s⁻¹
kon [4]: 152000 M⁻¹ s⁻¹
EC50 [5]: 1.11 µg/mL and 6.41 nM
EC50 (read off the curve) [6]: ~2 µg/mL
EC50 [7]: 0.712 µg/mL and 4.09 nM
EC50 (read off the curve) [8]: ~0.07 µg/mL
EC50 (read off the curve) [9]: ~0.07 µg/mL
Kd [10]: 0.559 nM
koff [10]: 0.000312 s⁻¹
kon [10]: 559000 M⁻¹ s⁻¹
Kd [11]: 0.643 nM
koff [11]: 0.000273 s⁻¹
kon [11]: 425000 M⁻¹ s⁻¹
decrease of binding activity against wild type CD137 [12]: > 75%
decrease of binding activity against wild type CD137 [13]: > 75%
decrease of binding activity against wild type CD137 [14]: > 75%
EC50, cell-based bioluminescent assay (NFκB luciferase in JK-NFκB-CD137 co-cultured with Hepa1-6T-OS8-GPC3) [15]: 0.149 µg/ml and 0.86 nM
EC50, cell-based bioluminescent assay (NFκB luciferase in JK-NFκB-CD137 co-cultured with Hepa1-6T-OS8-GPC3) [16]: 0.149 µg/ml and 0.86 nM
binding result [17]: no binding
binding result [18]: no binding
binding result [19]: no binding
binding result [20]: no binding
binding result [21]: no binding
binding result [22]: no binding
binding result [23]: no binding
binding result [24]: no binding
binding result [25]: no binding
EC50 (read off the curve) [26]: ~0.009 µg/mL
B1: BE-830 (bispecific antibody, human IgG1, kappa)
heavy: QVQLVQSGAEVKKPGASVKVSCKASGYTFTDYEMHWVRQAPGQGLEWMGALDPKTGDTAYSQKFKGRVTLTADKSTSTAYMELSSLTSEDTAVYYCTRFYSYTYWGQGTLVTVSSASTKGPSVFPLAPSSKSTSGGTAALGCLVKDYFPEPVTVSWNSGALTSGVHTFPAVLQSSGLYSLSSVVTVPSSSLGTQTYICNVNHKPSNTKVDKKVEPKSCDKTHTCPPCPAPPAAGPSVFLFPPKPKDTLMISRTPEVTCVVVDVSHEDPEVKFNWYVDGVEVHNAKTKPREEQYNSTYRVVSVLTVLHQDWLNGKEYKCKVSNKALAAPIEKTISKAKGQPREPQVYTLPPSREEMTKNQVSLTCLVKGFYPSDIAVEWESNGQPENNYKTTPPVLDSDGSFFLYSKLTVDKSRWQQGNVFSCSVMHEALHNHYTQKSLSLSPGKGGGGSEVQLLESGGGLVQPGGSLRLSCAASGFTVSAEDVGWVRQAPGKGLEWVSAILDKGGSTYYAESVKGRFTISRDNAKNTLYLQMSSLRAEDTAVYYCARIVYHAGGGVTFDTRGQGTQVTVSS
light: DVVMTQSPLSLPVTPGEPASISCRSSQSLVHSNRNTYLHWYLQKPGQSPQLLIYKVSNRFSGVPDRFSGSGSGTDFTLKISRVEAEDVGVYYCSQNTHVPPTFGQGTKLEIKRTVAAPSVFIFPPSDEQLKSGTASVVCLLNNFYPREAKVQWKVDNALQSGNSQESVTEQDSKDSTYSLSSTLTLSKADYEKHKVYACEVTHQGLSSPVTKSFNRGEC
notes: also called GPC3×CD137 multispecific antibody BE-830; GPC3 x CD137 (BE-830)
